Results from PMC11255602.

Assays:
[1] = target: PRMT1 E27 (N-terminal truncation lacking the first 26 amino acids) (UniProt Q99873); assay: native gel or EMSA
[2] = target: PRMT1 S14 (N-terminal truncation lacking the first 13 amino acids) (UniProt Q99873); assay: native gel or EMSA

| stoichiometry N [1] | stoichiometry N [2] | Substance |
| --- | --- | --- |
| 4 |  | PRMT1 E27 (N-terminal truncation lacking the first 26 amino acids) (from UniProt Q99873-3 27-353) (domain or fragment) |
|  | 4 | PRMT1 S14 (N-terminal truncation lacking the first 13 amino acids) (from UniProt Q99873-3 14-353) (domain or fragment) |
